By stoichiometry N is commonly meant a count of units in the complex or per binding partner.

One protein from publication doi:10.64898/2025.12.23.696137 (bioRxiv, 2025) can be followed below.

The data set concerns the molecule itself. The experiment in a line: co-IP.

B1: METTL9-FLAG wild type (mouse) (enzyme)
chain: RRMWTLRSPLSRSLYVNMTSGPGGPAAAAGGGKDTHQWYVCNREKLCESLQSVFVQSYLDQGTQIFLNNSIEKSGWLFIQLYHSFVSSVFSLFMSRTSINGLLGRGSMFVFSPDQFQRLLRINPDWKTHRLLDLGAGDGEVTKIMSPHFEEIYATELSETMIWQLQKKKYRVLGINEWQNTGFQYDVISCLNLLDRCDQPLTLLKDIRSVLEPTQGRVILALVLPFHPYVENVGGKWEKPSEILEIKGQNWEEQVNSLPEVFRKAGFVVEAFTRLPYLCEGDMYNDYYVLDDAVFVLRPV
modifications: N-linked glycans at Asn-35 and Asn-86
With B1, the “stoichiometry N” value amounted to 2.
